Experimental data reported in paper PMC11576661, “Biocatalytic sulfation of aromatic and aliphatic alcohols catalyzed by arylsulfate sulfotransferases” (Applied Microbiology and Biotechnology, 2024).

Tests used:
Test in all cases: purified protein
Details in all cases: apparent, sulfate donor, acceptor phenol 100 mM, Tris/HCl 50 mM pH 8.0, 30 °C
purified protein [1] = substrate: O=[N+]([O-])c1ccc(OS(=O)(=O)O)cc1; assay type: biochemical, Desulfitobacterium dehalogenans
purified protein [2] = substrate: O=[N+]([O-])c1ccc(OS(=O)(=O)O)cc1; assay type: biochemical, Desulfitobacterium hafniense
purified protein [3] = substrate: O=[N+]([O-])c1ccc(OS(=O)(=O)O)cc1; assay type: biochemical, Dehalobacterium formicoaceticum
purified protein [4] = substrate: O=[N+]([O-])c1ccc(OS(=O)(=O)O)cc1; assay type: biochemical, Hungatella effluvii
purified protein [5] = substrate: O=[N+]([O-])c1ccc(OS(=O)(=O)O)cc1; assay type: biochemical, Desulfosporosinus orientis

B1: ASSTDdeh (Desulfitobacterium dehalogenans ATCC 51507) (protein)
chain: MMNPIKSEQIPHIIHRQKDFEEAFLAEFSAGHYTLANPLVELNPYEICPLTAMILFETPVSTEATIIVRGKEHPGDIRHTFPANKKHILPIYGLYADYENKVEIVLANGQRNTVTIKTGPLHPDVPVATSIKTTSEYMGNNLMFLTAAMKAMPVGYDYAGEVRWYATRNFAFDLKRIPNGHILIGTERLVKMPYFTTGLYEMAFSGKIFKEYRLPSGYHHDQFVMEDGNILVLTFDFYSGTVEDMCVLLDAETGEILKSWDYKKVLPQDVAGSGSQDAHDWFHNNAVWYDRKTNSLSLSGRHQDAVINIDYETGELNWIIGDPEGWPQDMVDQYFFTPVGEGEFDWQYEQHACVVLPDGDIMLFDNGHFRAKNKENYLPNSQNFSRGVRYRIDTEKMTIEQVWQYGKERGAEFFSPYICNVEYYDEGHYLVHSGGIGYENGETCEGMAVMKVLQPEFKDNVYTFNSITCELKDDVLMYELQVPANCYRAEKLPLYYAYETAELGEGKILGNLVETQETKMKIKAVETGERVPDHYEASITEEEDRILLNAIFDAGELAQLLLVDGDGGVKRYPISTVPQAFQAMCVGTFQKADPRNIDVYINKTGLSGKYQVKLIAEEKLYETGVSITA
notes: recombinant from E. coli BL21(DE3), C-terminal His-tag, IMAC purified, about 70-76 kDa
- Km (purified protein [1]): 400 µM
- Vmax (purified protein [1]): 21.2 µmol/min/mg
- kcat (purified protein [1]): 25.3 s⁻¹
- kcat/Km (purified protein [1]): 63200 M⁻¹ s⁻¹

B2: ASSTC (Desulfitobacterium hafniense) (protein)
chain: MVDYEYCPHIITKQNELEKAFMEKFEAGNYSLENPLVILNPYGVAPLTAMILFNTPIACEAKIIVKGKEHPGDIQHTFPAATRHILPVYGLYGGYKNTIKIILSTSSSNTITIQTEPLPKSVAIPSSIKTTSEYMGNNLMFLSPSMASLTVGYDYAGDVRWYCSLNVCFDLKRMPNGHLLIGTGRLVKVPYYTSGLYEMAFSGKIFKEFILPGGYHHDQFVMEDGNLLVLTQDFYADTVEDVCVLIDPHSGDILKKWDFKNILPQDVAGSGTQTAHDWFHNNAVWYDNRTNSLTLSGRHQDVIINIDYETGGLNWMIGDPEGWPQELVDKYFFTPAGDGEFDWQYEQHGCVVLPDGDIMVFDNGHYRSKNKENYRLNKDNFSRGVRYRIDTERMTIQQIWQYGKERGADFFSPFICNVEYYDEGHYMVHSGGIGYENGKPCEGLAVGKSKNPKFKDNVYTLNSITCELVNDELVYELQVPANFYRAEKLPIYYANEVAELCEGQRLGQFVETQTTRMKIKALETKEPIPEHYQAKIVEEEDRFCLNAIYESGETAQLLLVSESDEILRYPINTVAQAYGAMCVGTFQKSDPRNVDTFVTKTGLSGKYQVKLVAEDKIYETGVTISA
notes: as for B1
- Km (purified protein [2]): 200 µM
- Vmax (purified protein [2]): 0.6 µmol/min/mg
- kcat (purified protein [2]): 0.7 s⁻¹
- kcat/Km (purified protein [2]): 3600 M⁻¹ s⁻¹

B3: ASSTDfor (Dehalobacterium formicoaceticum) (protein)
chain: MNAIKSEQVPHIIHQQEKLEKAFLAEFAAGGYTLYNPLVKINPYGICPLTAMVLFETPVATEATVVVRGKEHLGDIRHTFPAGKKHILPIYGLYADYENKIELIMANGQKNTIKIQTEPLHTDVPVATSIKTTPEYMGNNLMFLTAAMRSMPVGYDYAGDIRWYATKNFAFDLKRLPNGHILVGTERLVKMPYFTTGLYEMAFSGKIFKEYVLPSGYHHDQFPMEDGNILVLTFDFYSGTVEDMCVLLDAKTGEVLKSWDYKKVLPQDVAGSGSQDEHDWFHNNAVWYDKKTNSLSLSGRHQDAVINIDYETGELNWIIGDPEGWPKEMVDKYFFTPVGDGDFDWQYEQHACVVLPDGDIMLFDNGHFRAKNKENYWPNSKNFSRGVRYRIDTEKMTIKQVWQYGKERGAEFFSPYICNVEYYNEGHYLVHSGGIGYENGKPCEGMAVMKTMQPEFKDNVYTFNSITCELKDDVLMYELQVPANCYRAEKLPLYYANETAELGAGEILGNLIKTEETKMKIKAEETGALVPDHFQASITEEEDRFLFNAIFDAGEMAQLLLVNEAGEIKRYPINTVPQAFQAMCVGTFQKADPRNIDTFINKIGLSGNYQVKLVAEEKVYETGVTIKA
notes: as for B1
- Km (purified protein [3]): 500 µM
- Vmax (purified protein [3]): 5.3 µmol/min/mg
- kcat (purified protein [3]): 6.3 s⁻¹
- kcat/Km (purified protein [3]): 12600 M⁻¹ s⁻¹

B4: ASSTHeff (Hungatella effluvii) (protein)
chain: MIRYEKKNSLITQQAEAEQKFLETFEAGAYTASSPLVVRNPYLISPLSAMILFKTAVKQEVTLTVKGKEPEGDISHTFPADTIHILPVYGLYADCENTVELILSGGERETVMIKTEPLPPEVPVPTFCKGSGAHMGDNVIFLTQTSKADALACDYRGDVRWYLTVNVCFDMKRLANGHLLVGTDRLIKLPYYVSGVYEMGVHGKIYREYRLPGGYHHDTFEMEDGNILMLSQIPDRDTVEDVLVLVNRQTGAIVRTWDYREILPYDCQTTWSGSASAHDWFHNNAVWYDKKTDSITLSGRHQDAVINIDFKTGALNWILGDPEGWPEEYVEKYFFRPISEPFEWSYEQHGVVVCPDGDIMMFDNGHYRSKLKAHYSKAKDSYSRGVRYHIDREARTIEQVWQYGKERGADFFSPYICNVEYYDEGRYMVHSGGIAYKDGEPLEGLGSMDGTGEGCTLNAITCELVNDEVVYELHVPSNVFRAEKLPMYYAGETAELGAGKTLGSMSRTGEFETEIPAVCTGDLIPEHYEASVTEEEDRILFNATFEKGELAMLLLEEEDGKAHRYYINTSAAKNFEAMCVGTFLKNDPRNVDVYVNKCGMSKNVKVRVLLEDKIYETGVEIRME
notes: as for B1
- Km (purified protein [4]): 2100 µM
- Vmax (purified protein [4]): 39.8 µmol/min/mg
- kcat (purified protein [4]): 46.9 s⁻¹
- kcat/Km (purified protein [4]): 22300 M⁻¹ s⁻¹

B5: ASSTDor (Desulfosporosinus orientis DSM 765) (protein)
chain: MSVKFKSFDHIITEQYQAEQAFLTEYQKGEYSFNNPYVKLNPYIIAPLTALVMFKTAQPTTVTITVKGKDKNGDICFNFPTAIEHLIPVYGLYANYANKVELALGDGKTNVITIQTEAAPEIVKLPTQINTTADYFEDNIMFVSPTSTAATAGYDYNGDVRWYGSLNFAFDIKRAKNGRLLLGTHRLVTPPYHTTGLYEMGMIGKIYKEYRLPSGYHHDQFEMEDGNLLILSQDLPRGTVEDMCVLVDRKTGQIIKSWDYQKVLPTNAGGSGSQDSHDWFHNNAVWYDKKTNSLTLSGRHQDIIINLDFETGALNWIIGDPEGWPKELVDNYFFKPVGKGEFDWQYEQHACVVCPNGDIMAFDNGHWRSKIKENYVTANDNFSRGVRYRIDTKKMEIEQVWQYGKERGAEFFSTYICNVEYYDEGHYLIHSGGIGSIDGEALNKPPVQFRGEDEKKVVFNSITVELKDDVMMYEMQLPANYYRAEKLKLYAAEDVLTLGKGELLGTLGVTEEFTTIPPAEEGGMVPEKYNVKLGLEEDRLIFKATFEKGQMVLLQLEGETTHSYFVPTTKRPFLAMCVGTFQESDDRAVEFPVSREGLAGGFRVSLIVDAYKYETGVTIKL
notes: as for B1
- Km (purified protein [5]): 1000 µM
- Vmax (purified protein [5]): 0.5 µmol/min/mg
- kcat (purified protein [5]): 0.6 s⁻¹
- kcat/Km (purified protein [5]): 600 M⁻¹ s⁻¹
